From the supplement of paper PMC9112550, “Optimization of the antimicrobial peptide Bac7 by deep mutational scanning” (BMC Biology, 2022)

Each sequence was assayed on Escherichia coli TOP10 (assay: shrunken log2 fold change of peptide-encoding DNA abundance (4.5 h post-induction vs induction); higher = less antimicrobial activity (less host growth inhibition)). Details: time post-induction: 4.5 h; library: site-saturation at positions 5, 18, 19, 20.
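Note: peptides expressed intracellularly from a pBAD plasmid library in pooled LB shake-flask culture, induced with 0.3% L-arabinose, DNA abundance read by NGS, three biological replicates, DESeq2 with apeglm shrinkage.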

Sequence	shrunken log2 fold change
RRIRSRPPRLPRPRPRPCANPRP	-0.113
RRIRTRPPRLPRPRPRPVIAPRP	-0.189
RRIRCRPPRLPRPRPRPWNMPRP	-0.316
RRIRSRPPRLPRPRPRPRMLPRP	-0.214
RRIRRRPPRLPRPRPRPQHGPRP	0.198
RRIRYRPPRLPRPRPRPFEAPRP	-0.886
RRIRLRPPRLPRPRPRPARHPRP	0.148
RRIRRRPPRLPRPRPRPYENPRP	-0.374
RRIRARPPRLPRPRPRPCPYPRP	-0.359
RRIRQRPPRLPRPRPRPKQIPRP	-0.103
RRIRDRPPRLPRPRPRPVNYPRP	-0.116
RRIRFRPPRLPRPRPRPPMFPRP	-0.0657
RRIRFRPPRLPRPRPRPAPKPRP	0.379
RRIRWRPPRLPRPRPRPKFYPRP	-0.24
RRIRHRPPRLPRPRPRPHLSPRP	-0.43
RRIRMRPPRLPRPRPRPFWIPRP	0.00154
RRIRPRPPRLPRPRPRPEWPPRP	0.449
RRIRLRPPRLPRPRPRPYNLPRP	-0.417
RRIRWRPPRLPRPRPRPNMFPRP	-0.0911
RRIRVRPPRLPRPRPRPYEQPRP	-0.285
RRIRCRPPRLPRPRPRPSLEPRP	-0.136
RRIRARPPRLPRPRPRPWVVPRP	0.0153
RRIRKRPPRLPRPRPRPNMAPRP	0.00469
RRIRFRPPRLPRPRPRPHYSPRP	-0.65
RRIRERPPRLPRPRPRPQSVPRP	-0.0488

Sequence	shrunken log2 fold change
RRIRLRPPRLPRPRPRPISSPRP	0.106
RRIRYRPPRLPRPRPRPWRRPRP	-0.104
RRIRARPPRLPRPRPRPLPAPRP	1.02
RRIRARPPRLPRPRPRPSHNPRP	-0.245
RRIRKRPPRLPRPRPRPMLRPRP	0.308
RRIRERPPRLPRPRPRPNKWPRP	-0.576
RRIRRRPPRLPRPRPRPDVSPRP	-0.0463
RRIRGRPPRLPRPRPRPYHQPRP	-0.101
RRIRFRPPRLPRPRPRPYRSPRP	-0.975
RRIRRRPPRLPRPRPRPRPQPRP	0.541
RRIRSRPPRLPRPRPRPRQNPRP	-0.0458
RRIRGRPPRLPRPRPRPSHMPRP	-0.207
RRIRHRPPRLPRPRPRPNEPPRP	-0.00438
RRIRDRPPRLPRPRPRPDFAPRP	0.152
RRIRSRPPRLPRPRPRPLAMPRP	0.087
RRIRCRPPRLPRPRPRPIMDPRP	-0.5
RRIRDRPPRLPRPRPRPQDDPRP	0.0352
RRIRSRPPRLPRPRPRPSRVPRP	0.107
RRIRSRPPRLPRPRPRPSDNPRP	-0.249
RRIRNRPPRLPRPRPRPTQVPRP	0.152
RRIRWRPPRLPRPRPRPSIQPRP	-0.0487
RRIRGRPPRLPRPRPRPDIDPRP	2.17
RRIRKRPPRLPRPRPRPHIMPRP	-0.0414
RRIRTRPPRLPRPRPRPQRSPRP	0.309
RRIRLRPPRLPRPRPRPEWLPRP	0.315

Sequence	shrunken log2 fold change
RRIRPRPPRLPRPRPRPLEFPRP	-0.241
RRIRGRPPRLPRPRPRPLFPPRP	0.406
RRIRKRPPRLPRPRPRPPKNPRP	0.546
RRIRMRPPRLPRPRPRPSYLPRP	-0.336
RRIRKRPPRLPRPRPRPCLQPRP	0.194
RRIRYRPPRLPRPRPRPQRSPRP	-0.129
RRIRGRPPRLPRPRPRPGGFPRP	0.819
RRIRCRPPRLPRPRPRPHHLPRP	-0.808
RRIRVRPPRLPRPRPRPLIVPRP	-0.335
RRIRWRPPRLPRPRPRPKPWPRP	0.515
RRIRERPPRLPRPRPRPYVTPRP	-0.447
RRIRDRPPRLPRPRPRPAEVPRP	0.46
RRIRYRPPRLPRPRPRPWYRPRP	0.729
RRIRIRPPRLPRPRPRPQNKPRP	-0.668
RRIRNRPPRLPRPRPRPTNLPRP	-0.0193
RRIRNRPPRLPRPRPRPCWWPRP	0.0782
RRIRERPPRLPRPRPRPYGMPRP	-0.207
RRIRNRPPRLPRPRPRPSITPRP	-0.656
RRIRFRPPRLPRPRPRPFGDPRP	-0.19
RRIRFRPPRLPRPRPRPWEFPRP	-0.12
RRIRVRPPRLPRPRPRPIPIPRP	-0.106
RRIRLRPPRLPRPRPRPWWWPRP	-0.00192
RRIRCRPPRLPRPRPRPEATPRP	0.95
RRIRYRPPRLPRPRPRPLVWPRP	0.00227
RRIRYRPPRLPRPRPRPYVIPRP	-1.19
